B1: THAP1; numbered along this chain (parent)
chain: MVQSCSAYGCKNRYDKDKPVSFHKFPLTRPSLCKEWEAAVRRKNFKPTKYSSICSEHFTPDCFKRECNNKLLKENAVPTIFLCTEPHDKKEDLLEPQEQLPPPPLPPPVSQVDAAIGLLMPPLQTPVNLSVFCDHNYTVEDTMHQRKRIHQLEQQVEKLRKKLKTAQQRCRRQERQLEKLKEVVHFQKEKDDVSERGYVILPNDYFEIVEVPA

Variants of: B1
Assay: THAP1 transcriptional activity (GFP+/GFP- enrichment relative to wild-type constructs) (ratio to WT); higher = more THAP1 activity (PSMB5 reporter activation)
Conditions: with PSMB5 promoter-GFP reporter
Experimental: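 Deep mutational scan of human THAP1. Site-saturation single amino acid variant library (residues 2-213) was expressed by lentivirus at MOI ~0.3 in THAP1-knockout HEK-293T cells carrying an endogenous PSMB5 promoter-GFP knock-in reporter. Five days post-transduction, BFP+ cells were FACS-sorted into GFP dim and GFP bright populations and variants were counted by Illumina sequencing. Activity is the GFP-bright/GFP-dim read fold change, mean of 2 replicates, divided by the mean fold change of wild-type (synonymous) constructs in the same screen pool; WT = 1.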

Variant | THAP1 transcriptional activity
L180V | 0.58
L180R | 0.417
Y205L | 2.1
Y205F | 0.778
E153V | 0.395
E153Y | 0.404
E153N | 0.512
Q167P | 0.13
T84I | 0.739
T84K | 2.57
N75V | 0.214
P86R | 0.766
K158N | 0.391
K158Y | 0.666
N136S | 0.345
N136Y | 0.187
T142F | 0.386
T142R | 0.576
L27I | 0.729
L27V | 0.488
V183C | 1.04
V183S | 1.48
N12V | 0.129
N12Y | 0.149

Variant | THAP1 transcriptional activity
N12S | 0.283
P126D | 1.02
A39V | 0.252
A39K | 0.9
A39H | 0.601
A39E | 0.168
F58N | 0.0722
E85T | 0.594
H57S | 0.121
H57N | 0.0635
H57E | 0.0678
L72D | 0.169
F81Q | 0.206
F81G | 0.402
F81E | 0.405
V131C | 0.427
V131E | 0.239
F22M | 0.0987
F22L | 0.117
F22C | 0.0658
R160C | 0.269
R172K | 0.684
T79M | 0.254
T79Q | 0.296

Variant | THAP1 transcriptional activity
D17N | 0.707
D17A | 1.12
V20G | 0.125
H144G | 1.11
H144M | 0.509
H144E | 0.421
E35Y | 0.266
P102L | 1.12
V193F | 1.06
V193G | 1.08
V193N | 1.24
V193A | 0.82
D15I | 0.436
Q168Y | 0.173
Q173W | 0.284
Q173D | 0.232
M120S | 0.984
M120G | 0.81
R171L | 0.314
R171K | 0.627
K181R | 0.964
K181H | 0.478
V156Q | 0.225
V156E | 0.213

Variant | THAP1 transcriptional activity
P103S | 1.1
P103F | 0.27
P103H | 0.719
P103M | 0.728
Q99N | 2.66
Q99E | 1.22
D192C | 0.816
I116R | 0.984
I116P | 0.93
Q145W | 0.755
Q145D | 0.415
F132A | 0.892
E66V | 0.638
E66L | 0.436
S55C | 0.0655
S55E | 0.127
D113L | 0.336
D113H | 0.473
R196N | 0.869
P104M | 0.907
K188R | 1.34
K188V | 0.826
S52F | 0.325
S52Y | 0.46

Variant | THAP1 transcriptional activity
S52Q | 0.261
R13H | 0.117
R13K | 0.211
R13L | 0.229
K70R | 2.14
V199A | 0.703
V199Y | 0.918
C67H | 0.198
C67R | 0.502
V40N | 0.136
V40E | 0.113
V40W | 0.169
V40T | 0.238
P202Y | 1.04
P202E | 1.05
P202M | 1.1
P202C | 0.722
Q3C | 0.269
Q3L | 0.354
L100S | 2.08
L100G | 0.906
A114C | 0.678
P106T | 1.33
P106C | 1.25

Variant | THAP1 transcriptional activity
F186G | 1.63
F186E | 1.64
N44E | 0.348
Y8A | 0.581
K89L | 1.64
K89V | 1.41
R29D | 0.187
R29F | 0.154
R29H | 0.211
W36V | 0.138
W36L | 0.338
K43P | 0.957
C10F | 0.113
C10H | 0.0737
R65L | 1.04
R65T | 0.797
R65A | 0.63
R65I | 0.626
S130G | 0.946
S130Q | 0.656
N203H | 1.32
N203G | 1.23
N69I | 0.672
N69G | 0.122

Variant | THAP1 transcriptional activity
E210P | 0.35
E210R | 0.747
E210Y | 1.39
E210T | 1.08
E210C | 1.03
E210D | 1.07
P122M | 0.226
P122H | 0.355
P122S | 0.627
V2S | 0.297
V2R | 0.122
V2Y | 0.16
E37I | 0.988
E37D | 0.182
G9Q | 0.115
Q97R | 0.945
Q97M | 1.09
Q97T | 1.88
Q154S | 1.24
P107F | 0.519
S110R | 0.973
S110P | 0.916
S110H | 0.672

Source: the supplement of paper PMC11811203
